Results: PMC5460178 (NPJ Biofilms and Microbiomes, 2017)

Target: the molecule itself
Test: SEC

B1: GroEL-P (His6-GroEL of B. anthracis co-expressed with PrkCc in E. coli, phosphorylated) (natural protein)
chain: MAKDIKFSEEARRSMLRGVDTLANAVKVTLGPKGRNVVLEKKFGSPLITNDGVTIAKEIELEDAFENMGAKLVAEVASKTNDVAGDGTTTATVLAQAMIREGLKNVTAGANPMGLRKGIEKAVVAAVEELKTISKPIEGKSSIAQVAAISAADEEVGQLIAEAMERVGNDGVITLEESKGFTTELDVVEGMQFDRGYASPYMITDSDKMEAVLDNPYILITDKKISNIQEILPVLEQVVQQGKPLLIIAEDVEGEALATLVVNKLRGTFNVVAVKAPGFGDRRKAMLEDIAILTGGEVITEELGRDLKSATVESLGRAGKVVVTKENTTVVEGVGSTEQIEARIGQIRAQLEETTSEFDREKLQERLAKLVGGVAVIKVGAATETELKERKLRIEDALNSTRAAVEEGIVAGGGTSLMNVYTKVASIVAEGDEATGINIVLRALEEPVRQIAINAGLEGSVVVERLKGEKVGVGFNAATGEWVNMLETGIVDPAKVTRSALQNAASVAAMFLTTEAVVADKPEPNAPAMPDMGGMGMGGMGGMM
stoichiometry N: 14
